# Reference: patent US6551840B2, “Method of screening TGF-β-inhibiting substances” (Chugai Seiyaku Kabushiki Kaisha, priority 1997, dated 2003)
# B1: TAK1-K63W: catalytically inactive TAK1 polypeptide mutant in which the lysine residue at position 63 has been replaced with the tryptophan residue (protein, UniProt O43318 1-606, looked up, variant K63W)
# Mitogen-activated protein …: MSTASAASSSSSSSAGEMIEAPSQVLNFEEIDYKEIEVEEVVGRGAFGVVCKAKWRAKDVAIWQIESESERKAFIVELRQLSRVNHPNIVKLYGACLNPVCLVMEYAEGGSLYNVLHGAEPLPYYTAAHAMSWCLQCSQGVAYLHSMQPKALIHRDLKPPNLLLVAGGTVLKICDFGTACDIQTHMTNNKGSAAWMAPEVFEGSNYSEKCDVFSWGIILWEVITRRKPFDEIGGPAFRIMWAVHNGTRPPLIKNLPKPIESLMTRCWSKDPSQRPSMEEIVKIMTHLMRYFPGADEPLQYPCQYSDEGQSNSATSTGSFMDIASTNTSNKSDTNMEQVPATNDTIKRLESKLLKNQAKQQSESGRLSLGASRGSSVESLPPTSEGKRMSADMSEIEARIAATTAYSKPKRGHRKTASFGNILDVPEIVISGNGQPRRRSIQDLTVTGTEPGQVSSRSSSPSVRMITTSGPTSEKPTRSHPWTPDDSTDTNGSDNSIPMAYLTLDHQLQPLAPCPNSKESMAVFEQHCKMAQEYMKVQTEIALLLQRKQELVAELDQDEKDQQNTSRLVQEHKKLLDENKSLSTYYQQCKKQLEVIRSQQQKRQGTS
# Tests used:
# Mv1Lu cell [1] = test: PAI-1 ELISA in culture supernatant of Mv1Lu cells with or without TGF-β1; assay type: cell-based, mink; settings: Mv1Lu cells with forced expression; 10 ng/ml TGF-β1, 24 hours; control cells about 16-fold
# Excerpt: Accordingly, TAK1DN was subjected to forced expression in the Mv1Lu cell to investigate the effects of TGF-β stimulation on PAI-1 expression. The TAK1DN expression vector used was the above-mentioned TAK1DN, and the TAK1 polypeptide mutant TAK1-K63W expression vector was constructed by inserting a gene (Yamaguchi K. et al., (1995) Science 270, 2008-2011) encoding the TAK1 polypeptide mutant TAK1-K63W in which the lysine residue at position 63 has been replaced with the tryptophan residue at the EcoRI and NotI restriction enzyme site of pCOS1 to give pTAK1K63W.
# The Mv1Lu cells into which pTAK1Dn had been introduced (Mv/DN2), the cells into which pTAK1K63W had been introduced (Mv/KN7), and the control cells into which pCOS1 containing no inserted genes (Mv/NEO) had been introduced were each incubated in a low-serum medium (MEM medium containing 0.2% FBS; manufactured by GIBCO-BRL) with or without 10 ng/ml of TGF-β1 for 24 hours. The amount of PAI-1 in the culture supernatant was determined using the PAI-1 Quantative ELISA (manufactured by CALBIOCHEM).
# Mv1Lu cell [2] = settings: Yamaguchi K. et al., (1995) Science 270, 2008-2011; cited from earlier work
molecule,measurement,setting,value
B1,increase in PAI-1 in the culture supernatant by TGF-β1 addition,Mv1Lu cell [1],about 6.5 fold
same,effect of forced expression on PAI-1 expression stimulated by TGF-β,Mv1Lu cell [2],PAI-1 expression is inhibited
